Data reported in article PMC4324353 (2014).
Values belong to the binder of their own block, whether it stands above or below them.

Biological target: actin (Oryctolagus cuniculus, UniProt P68135)

Kd: 10 nM
B1: Spire Sc3d WH2 c-Linker 3-WH2 d (second actin at Sc) (protein)
chain: KKDAHAMILEFIRSRPPLKKASDRQLGPPRMCEPSPREQLMESIRKGKELKQITPPEA

Kd: 30 nM
B2: Spire Sc3d WH2 c-Linker 3-WH2 d (second actin at Sd) (protein)
chain: B1 chain
